Experiment [1] has as its target HaloTag-fused talin1 (HT-talin1) expressed in BAF/LFA1 cells (UniProt P26039). The experiment is described as follows: single-molecule binding analysis (HT-Tln1 imaging in BAF/LFA1 cells). The settings on record: ICAM1+PMA, read off a plot.
The target of experiment [2] is T1, HaloTag-fused talin1 (HT-talin1), endogenous knock-in in mouse primary T cells (mouse (endogenous knock-in in mouse T …, UniProt P26039 1-2541, HaloTag labelled with HT SaraFluor 650T Ligand)). In words: Th2 cells, on ICAM1.
The target in experiment [3] is T1, HaloTag-fused talin1 (HT-talin1), …. In words: activated T cells, on ICAM1.
Experiment [4] shares this target. In words: naive T cells, on ICAM1.
Experiment [5] has the same target. The experiment is described as follows: naive T cells, on ICAM1. The source holds these as a separate data set.
Experiment [6] deals with T2, GST-fused talin1 FERM F2–F3 domain.
T2 chain: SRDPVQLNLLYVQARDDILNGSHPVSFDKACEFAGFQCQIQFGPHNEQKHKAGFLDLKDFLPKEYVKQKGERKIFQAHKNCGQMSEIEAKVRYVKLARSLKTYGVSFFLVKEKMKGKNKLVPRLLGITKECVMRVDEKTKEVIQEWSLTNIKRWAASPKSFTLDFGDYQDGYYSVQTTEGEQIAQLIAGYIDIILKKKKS
The experiment is described as follows: BLI. (In general: In BLI a coated tip is dipped into the sample, and binding shifts an interference pattern.)

The target is the same in experiment [7]. In words: BLI.
In experiment [8] the target is T3, GST-fused talin1 FERM F2–F3 domain (GST carrier omitted. F2-F3 limits are not given; 206-405 is the usual talin1 F2-F3 construct. Mouse is assumed because the other talin1 constructs in the paper are mouse.).
T3 chain: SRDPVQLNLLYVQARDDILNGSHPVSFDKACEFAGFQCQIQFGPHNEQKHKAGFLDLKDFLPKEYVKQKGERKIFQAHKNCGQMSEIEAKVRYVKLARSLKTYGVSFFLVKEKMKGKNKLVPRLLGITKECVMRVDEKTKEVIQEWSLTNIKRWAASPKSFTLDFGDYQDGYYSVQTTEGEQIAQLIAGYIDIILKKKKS
The experiment is described as follows: BLI; Octet RH96; GST-talin1 FERM F2–F3 (10 μg/ml) immobilized on Octet GST Biosensors; synthetic integrin CT peptides at 4.9, 14.8, 44.4 and 133 μM as analytes in 25 mM Tris–HCl, 150 mM NaCl, 0.05% Triton X-100, pH 7.5; binding to GST alone subtracted. As to conditions: both partners purified.

In experiment [9] the target is T1, HaloTag-fused talin1 (HT-talin1), …. In words: Th2 cells, on PECAM1.
Experiment [10] shares this target. The experiment is described as follows: naive T cells, on PECAM1.
The mark [11] stands for this setting: β2β7: n = 1453, β2β7-NND: n = 1726, parent: est. 19.

We go through eight molecules from PMC12637224, “The nonconserved integrin cytoplasmic region determines integrin subtype–specific characteristics by modulating talin1 binding kinetics” (The Journal of Biological Chemistry, 2025).

Sequence of HaloTag-fused talin1 (HT-talin1) expressed in BAF/LFA1 cells (P26039 whole entry, looked up, the tested form may be a part): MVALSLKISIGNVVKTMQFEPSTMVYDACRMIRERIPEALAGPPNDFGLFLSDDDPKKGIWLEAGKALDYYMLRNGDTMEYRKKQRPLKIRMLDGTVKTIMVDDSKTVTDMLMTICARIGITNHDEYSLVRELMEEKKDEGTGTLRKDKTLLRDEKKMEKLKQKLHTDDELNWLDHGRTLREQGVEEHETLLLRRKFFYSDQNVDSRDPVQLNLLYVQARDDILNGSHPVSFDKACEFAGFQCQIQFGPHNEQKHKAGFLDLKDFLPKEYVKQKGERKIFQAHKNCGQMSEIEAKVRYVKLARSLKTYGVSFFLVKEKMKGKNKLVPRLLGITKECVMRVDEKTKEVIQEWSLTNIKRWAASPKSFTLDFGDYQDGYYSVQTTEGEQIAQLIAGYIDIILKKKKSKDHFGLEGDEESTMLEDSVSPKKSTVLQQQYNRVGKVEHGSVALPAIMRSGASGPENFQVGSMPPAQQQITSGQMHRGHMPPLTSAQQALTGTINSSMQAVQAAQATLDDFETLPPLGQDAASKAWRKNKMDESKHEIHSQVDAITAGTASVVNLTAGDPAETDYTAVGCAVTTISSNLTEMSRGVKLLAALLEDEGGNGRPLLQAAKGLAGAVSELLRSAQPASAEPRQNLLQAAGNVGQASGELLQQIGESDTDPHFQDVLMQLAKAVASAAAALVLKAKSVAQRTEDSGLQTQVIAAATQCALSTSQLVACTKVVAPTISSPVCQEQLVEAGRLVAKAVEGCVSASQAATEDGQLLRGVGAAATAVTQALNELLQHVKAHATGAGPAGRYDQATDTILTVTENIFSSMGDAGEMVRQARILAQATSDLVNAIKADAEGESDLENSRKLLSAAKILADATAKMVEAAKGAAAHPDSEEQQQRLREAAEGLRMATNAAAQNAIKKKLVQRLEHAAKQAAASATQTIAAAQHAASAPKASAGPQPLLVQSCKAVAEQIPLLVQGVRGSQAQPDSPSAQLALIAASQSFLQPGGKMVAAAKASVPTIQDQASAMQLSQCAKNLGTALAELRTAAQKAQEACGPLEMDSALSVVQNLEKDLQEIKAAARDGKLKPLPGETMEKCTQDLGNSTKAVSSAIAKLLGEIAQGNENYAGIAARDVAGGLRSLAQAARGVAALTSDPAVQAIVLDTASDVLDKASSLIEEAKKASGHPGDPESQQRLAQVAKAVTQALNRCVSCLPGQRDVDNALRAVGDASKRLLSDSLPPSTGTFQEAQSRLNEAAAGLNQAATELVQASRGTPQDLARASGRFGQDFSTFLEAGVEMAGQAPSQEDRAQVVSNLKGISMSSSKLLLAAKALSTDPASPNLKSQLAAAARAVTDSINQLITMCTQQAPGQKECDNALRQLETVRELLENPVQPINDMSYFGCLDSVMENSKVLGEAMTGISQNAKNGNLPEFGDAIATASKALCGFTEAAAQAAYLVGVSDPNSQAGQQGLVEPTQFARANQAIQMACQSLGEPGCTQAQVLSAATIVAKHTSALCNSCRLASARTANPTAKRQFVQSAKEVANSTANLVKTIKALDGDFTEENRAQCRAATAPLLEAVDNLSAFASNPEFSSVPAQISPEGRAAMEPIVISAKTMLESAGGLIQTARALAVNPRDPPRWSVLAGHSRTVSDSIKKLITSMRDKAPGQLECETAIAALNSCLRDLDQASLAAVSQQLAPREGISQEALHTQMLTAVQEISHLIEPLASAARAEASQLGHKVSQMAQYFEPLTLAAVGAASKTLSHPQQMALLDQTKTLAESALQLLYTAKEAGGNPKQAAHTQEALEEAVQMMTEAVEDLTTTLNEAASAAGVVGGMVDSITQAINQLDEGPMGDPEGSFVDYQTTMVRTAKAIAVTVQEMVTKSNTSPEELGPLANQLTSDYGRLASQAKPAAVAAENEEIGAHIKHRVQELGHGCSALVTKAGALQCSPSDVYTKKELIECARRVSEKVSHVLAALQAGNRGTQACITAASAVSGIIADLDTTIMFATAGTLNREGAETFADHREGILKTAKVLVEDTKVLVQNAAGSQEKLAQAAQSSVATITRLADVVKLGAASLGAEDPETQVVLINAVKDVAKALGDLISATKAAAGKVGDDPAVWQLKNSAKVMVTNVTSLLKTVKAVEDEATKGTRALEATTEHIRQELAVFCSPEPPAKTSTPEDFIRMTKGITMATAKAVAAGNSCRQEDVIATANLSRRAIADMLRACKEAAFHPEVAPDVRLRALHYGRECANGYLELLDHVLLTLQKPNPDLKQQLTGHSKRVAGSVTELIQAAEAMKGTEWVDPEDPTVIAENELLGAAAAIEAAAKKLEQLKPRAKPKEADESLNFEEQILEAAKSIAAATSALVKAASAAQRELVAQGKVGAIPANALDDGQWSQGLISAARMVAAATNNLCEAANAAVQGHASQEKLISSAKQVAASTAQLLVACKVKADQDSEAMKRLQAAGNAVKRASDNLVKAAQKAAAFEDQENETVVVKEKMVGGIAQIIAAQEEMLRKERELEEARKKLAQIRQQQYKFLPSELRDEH

Consider “chimeric LFA1 αLα4/β2β7 (cytoplasmic tails of αL and β2 replaced with those of α4 and β7) (from UniProt P13612;P26010) KQDS to NND (β7 WN linker)”, for which the other: binding frequency (events/area) in experiment [1] (β2β7: n = 22, β2β7-NND: n = 14, parent: est. 1.2) is 4.7 µm-2. Further, in experiment [1] (setting [11]), the other: frequency of binding time 1 to 10 s (yellow segment) turned out to be 23% and the other: frequency of binding time, top of stacked bar (1 to 10 s plus >10 s) was determined as 24%.

B1: LFA1 (αL/β2 integrin), endogenous on mouse primary T cells (receptor)
chain 1: YNLDTRPTQSFLAQAGRHFGYQVLQIEDGVVVGAPGEGDNTGGLYHCRTSSEFCQPVSLHGSNHTSKYLGMTLATDAAKGSLLACDPGLSRTCDQNTYLSGLCYLFPQSLEGPMLQNRPAYQECMKGKVDLVFLFDGSQSLDRKDFEKILEFMKDVMRKLSNTSYQFAAVQFSTDCRTEFTFLDYVKQNKNPDVLLGSVQPMFLLTNTFRAINYVVAHVFKEESGARPDATKVLVIITDGEASDKGNISAAHDITRYIIGIGKHFVSVQKQKTLHIFASEPVEEFVKILDTFEKLKDLFTDLQRRIYAIEGTNRQDLTSFNMELSSSGISADLSKGHAVVGAVGAKDWAGGFLDLREDLQGATFVGQEPLTSDVRGGYLGYTVAWMTSRSSRPLLAAGAPRYQHVGQVLLFQAPEAGGRWNQTQKIEGTQIGSYFGGELCSVDLDQDGEAELLLIGAPLFFGEQRGGRVFTYQRRQSLFEMVSELQGDPGYPLGRFGAAITALTDINGDRLTDVAVGAPLEEQGAVYIFNGKPGGLSPQPSQRIQGAQVFPGIRWFGRSIHGVKDLGGDRLADVVVGAEGRVVVLSSRPVVDVVTELSFSPEEIPVHEVECSYSAREEQKHGVKLKACFRIKPLTPQFQGRLLANLSYTLQLDGHRMRSRGLFPDGSHELSGNTSITPDKSCLDFHFHFPICIQDLISPINVSLNFSLLEEEGTPRDQKVGRAMQPILRPSIHTVTKEIPFEKNCGEDKKCEANLTLSSPARSGPLRLMSSASLAVEWTLSNSGEDAYWVRLDLDFPRGLSFRKVEMLQPHSRMPVSCEELTEGSSLLTKTLKCNVSSPIFKAGQEVSLQVMFNTLLNSSWEDFVELNGTVHCENENSSLQEDNSAATHIPVLYPVNILTKEQENSTLYISFTPKGPKTQQVQHVYQVRIQPSAYDHNMPTLEALVGVPWPHSEDPITYTWSVQTDPLVTCHSEDLKRPSSEAEQPCLPGVQFRCPIVFRREILIQVTGTVELSKEIKASSTLSLCSSLSVSFNSSKHFHLYGSKASEAQVLVKVDLIHEKEMLHVYVLSGIGGLVLLFLIFLALYKVGFFKRNLKEKMEADGGVPNGSPPEDTDPLAVPGEETKDMGCLEPLRESDKD
chain 2: QECTKYKVSSCRDCIQSGPGCSWCQKLNFTGPGEPDSLRCDTRAQLLLKGCPADDIMDPRSIANPEFDQRGQRKQLSPQKVTLYLRPGQAAAFNVTFRRAKGYPIDLYYLMDLSYSMLDDLNNVKKLGGDLLQALNEITESGRIGFGSFVDKTVLPFVNTHPEKLRNPCPNKEKACQPPFAFRHVLKLTDNSNQFQTEVGKQLISGNLDAPEGGLDAIMQVAACPEEIGWRNVTRLLVFATDDGFHFAGDGKLGAILTPNDGRCHLEDNMYKRSNEFDYPSVGQLAHKLSESNIQPIFAVTKKMVKTYEKLTEIIPKSAVGELSDDSSNVVQLIKNAYYKLSSRVFLDHSTLPDTLKVTYDSFCSNGASSIGKSRGDCDGVQINNPVTFQVKVMASECIQEQSFVIRALGFTDTVTVQVRPQCECQCRDQSREQSLCGGKGVMECGICRCESGYIGKNCECQTQGRSSQELERNCRKDNSSIVCSGLGDCICGQCVCHTSDVPNKEIFGQYCECDNVNCERYNSQVCGGSDRGSCNCGKCSCKPGYEGSACQCQRSTTGCLNARLVECSGRGHCQCNRCICDEGYQPPMCEDCPSCGSHCRDNHTSCAECLKFDKGPFEKNCSVQCAGMTLQTIPLKKKPCKERDSEGCWITYTLQQKDGRNIYNIHVEDSLECVKGPNVAAIVGGTVVGVVLIGVLLLVIWKALTHLTDLREYRRFEKEKLKSQWNNDNPLFKSATTTVMNPKFAES
In general, koff refers to a measure of how fast the partners let go of each other. B1: the koff stood at 0.17 s⁻¹ in [2], 0.279 s⁻¹ in experiment [3], 0.288 s⁻¹ in experiment [4] and 0.316 s⁻¹ in [5].

B2: synthetic integrin β1 cytoplasmic tail peptide (peptide)
peptide: KLLMIIHDRREFAKFEKEKMNAKWDTGENPIYKSAVTTVVNPKYEGK
modifications: GST carrier omitted. F2-F3 limits are not given; 206-405 is the usual talin1 F2-F3 construct. Mouse is assumed because the other talin1 constructs in the paper are mouse.
A word on the Kd: it is a measure of binding affinity in units of concentration. Turning to B2, the off-rate (koff) in experiment [6] was 0.00509 s⁻¹. The Kd in [7] was determined as 90.2 µM.

B3: synthetic integrin β7 cytoplasmic tail peptide (peptide)
peptide: RLSVEIYDRREYSRFEKEQQQLNWKQDSNPLYKSAITTTINPRFQEADSPTL
modifications: GST carrier omitted. F2-F3 limits are not given; 206-405 is the usual talin1 F2-F3 construct. Mouse is assumed because the other talin1 constructs in the paper are mouse.
With B3, in experiment [6], the koff stood at 0.00597 s⁻¹. The molecule further had a Kd in experiment [7] of 124 µM.

B4: synthetic integrin β3 cytoplasmic tail peptide (peptide)
peptide: KLLITIHDRKEFAKFEEERARAKWDTANNPLYKEATSTFTNITYRGT
modifications: GST carrier omitted. F2-F3 limits are not given; 206-405 is the usual talin1 F2-F3 construct. Mouse is assumed because the other talin1 constructs in the paper are mouse.
In turn, B4 displayed a koff in experiment [6] of 0.00458 s⁻¹. The molecule also showed a Kd in [7] of 133 µM.

B5: synthetic integrin β2 cytoplasmic tail peptide (peptide)
peptide: KALIHLSDLREYRRFEKEKLKSQWNNDNPLFKSATTTVMNPKFAES
modifications: GST carrier omitted. F2-F3 limits are not given; 206-405 is the usual talin1 F2-F3 construct. Mouse is assumed because the other talin1 constructs in the paper are mouse.
In turn, B5 had a koff in experiment [6] of 0.00398 s⁻¹. Besides, the Kd in experiment [7] worked out at 43.5 µM.

B6: synthetic integrin β2 cytoplasmic tail peptide (peptide, UniProt P05107 724-769, looked up)
peptide: KALIHLSDLREYRRFEKEKLKSQWNNDNPLFKSATTTVMNPKFAES
notes: integrin β2 cytoplasmic tail peptide; also called β2 integrin; β2-CT; source: synthetic peptide (GenScript)
For the molecule B6, in [8], the “fold higher affinity than m25 (β7 peptide)” value came out at 3 fold, the “fold higher affinity than m26 (β3 peptide)” value was determined as 3 fold and the “fold higher affinity than m27 (β1 peptide)” value worked out at 2 fold.

B7: αV/β3 integrin, endogenous on mouse primary T cells (receptor)
chain 1: FNLDVESPAEYAGPEGSYFGFAVDFFEPSTSSRMFLLVGAPKANTTQPGIVEGGQVLKCECSSSRRCQPIEFDSTGNRDYAKDDPLEFKSHQWFGASVRSKQDKILACAPLYHWRTEMKQEREPVGTCFLQDGTKTVEYAPCRSKNIDADGQGFCQGGFSIDFTKADRVLLGGPGSFYWQGQLISDQVAEIISKYDPNVYSIKYNNQLATRTAQAIFDDSYLGYSVAVGDFNGDGIEDFVSGVPRAARTLGMVYIYDGKNMSSLHNFTGEQMAAYFGFSVAATDINGDDYADVFIGAPLFMDRGSDGKLQEVGQVSVSLQRAVGDFQTTKLNGFEVFARFGSAIAPLGDLDQDGFNDIAIAAPYGGEDKKGLVYIFNGRSTGLNSVPSQILEGQWAAQSMPPSFGYSMKGATDVDRNGYPDLVVGAFGVDRAVLYRARPVVTVNAGLEVYPSILNQDNKICPLPGTALKVSCFNVRFCLKADGKGTLPRKLHFQVELLLDKLKQKGAIRRALFLHNRSPVHSKTMTVFRGGQMQCEELVAYLRDESEFRDKLTPITIFMEYRLDQRTAADATGLQPILNQFTPANVSRQAHILLDCGEDNVCKPKLEVSVNSDQKKIYIGDDNPLTLTVKAQNQGEGAYEAELIVSIPPQADFIGVVRNNEALARLSCAFKTENQTRQVVCDLGNPMKAGTQLLAGLRFSVHQQSEMDTSVKFDLKIQSSNSFDNVSPVVSYKVDLAVLAAVEIRGVSSPDHIFLPIPNWEYKENPETEEDVGPIVQHIYELRNNGPSSFSKAILNLQWPYKYNNNTLLYILHYDIDGPMNCTADTEINPLRIKTPEKNDTAAAGQGERNHLITKRDLTLREGDVHTLGCGIAKCLQITCQVGRLDRGKSAILYVKSLLWTETFMNKENQNHSYSLKSSASFNIIEFPYKNLPIEDLFNSTLVTTNITWGIQPAPMPVPVWVIILAVLAGLLLLAVLVFVMYRMGFFKRVRPPQEEQEREQLQPHENGEGNSET
chain 2: ESNICTTRGVNSCQQCLAVSPVCAWCSDETLSQGSPRCNLKENLLKDNCAPESIEFPVSEAQILEARPLSSKGSGSSAQITQVSPQRIALRLRPDDSKIFSLQVRQVEDYPVDIYYLMDLSFSMKDDLSSIQTLGTKLASQMRKLTSNLRIGFGAFVDKPVSPYMYISPPQAIKNPCYNMKNACLPMFGYKHVLTLTDQVSRFNEEVKKQSVSRNRDAPEGGFDAIMQATVCDEKIGWRNDASHLLVFTTDAKTHIALDGRLAGIVLPNDGHCHIGTDNHYSASTTMDYPSLGLMTEKLSQKNINLIFAVTENVVSLYQNYSELIPGTTVGVLSDDSSNVLQLIVDAYGKIRSKVELEVRDLPEELSLSFNATCLNNEVIPGLKSCVGLKIGDTVSFSIEAKVRGCPQEKEQSFTIKPVGFKDSLTVQVTFDCDCACQAFAQPSSPRCNNGNGTFECGVCRCDQGWLGSMCECSEEDYRPSQQEECSPKEGQPICSQRGECLCGQCVCHSSDFGKITGKYCECDDFSCVRYKGEMCSGHGQCNCGDCVCDSDWTGYYCNCTTRTDTCMSTNGLLCSGRGNCECGSCVCVQPGSYGDTCEKCPTCPDACSFKKECVECKKFNRGTLHEENTCSRYCRDDIEQVKELTDTGKNAVNCTYKNEDDCVVRFQYYEDTSGRAVLYVVEEPECPKGPDILVVLLSVMGAILLIGLATLLIWKLLITIHDRKEFAKFEEERARAKWDTANNPLYKEATSTFTNITYRGT
Consider B7, for which the results for the off-rate constant (koff) in [9] and in experiment [10] were 0.264 s⁻¹ and 0.326 s⁻¹, respectively.
